# Test results: paper PMC9765544, “Metabolic Mechanism and Physiological Role of Glycerol 3-Phosphate in Pseudomonas aeruginosa PAO1” (mBio, 2022)
# Experiments:
# GlpR = target: T1, GlpR (Pseudomonas aeruginosa, UniProt Q51391); assay: EMSA, prevention of GlpR binding to glpFK and glpD promoter DNA; conditions: 10 mM G3P (lithium salt), 500 nM GlpR, 3.5 nM DNA probe, pH 7.4, 30 °C; effector (inducer)
# T1 construct: recombinant from pETDuet-glpR in E. coli BL21(DE3), HisTrap HP purified
# T1 sequence (Q51391 1-251): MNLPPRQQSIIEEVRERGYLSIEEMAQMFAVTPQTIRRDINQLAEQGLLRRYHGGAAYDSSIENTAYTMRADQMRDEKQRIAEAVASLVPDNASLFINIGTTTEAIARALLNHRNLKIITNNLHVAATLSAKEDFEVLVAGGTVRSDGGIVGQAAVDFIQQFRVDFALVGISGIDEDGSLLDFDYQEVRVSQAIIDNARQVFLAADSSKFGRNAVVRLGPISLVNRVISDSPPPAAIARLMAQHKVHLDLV
# O=P(O)(O)OC[C@H](O)CO = assay: purified protein; conditions: 5 mM MgCl2, 50 mM Tris-HCl pH 7.0, bis(cyclohexylammonium) salt
# [1] = substrate: O=P(O)(O)OC[C@H](O)CO; assay: released inorganic phosphate, Michaelis-Menten regression; format: biochemical, Pseudomonas aeruginosa; conditions: 5 mM MgCl2, 50 mM Tris-HCl pH 7.0, bis(cyclohexylammonium) salt
molecule,measurement,setting,value
O=P(O)(O)OC[C@H](O)CO [G3P],"EMSA, prevention of GlpR binding to glpFK and glpD promoter DNA",GlpR,G3P prevents GlpR binding to the glpFK (D) and glpD (E) promoter regions
PA3172 (Pseudomonas aeruginosa PAO1),Km,O=P(O)(O)OC[C@H](O)CO,5.634 ± 0.209 mM
PA0562 (Pseudomonas aeruginosa PAO1) (protein) MPHPIDALISDCDGVLVDSEVIAERVMYEALSAYAPLEELQRLLEGTFGLTSRDILDRVEKHFGLRIPDSFNREVRQRSEEMVAQVQPIPGAREALLALDLPVAVASNSRRHSLERSLARAGLSELIGERLASADMVALPKPAPDVYLHAASLLGVAPERCLVVEDSSTGTRAALAAGMRVIGFVGAGHIPAGHAEVLRELGAIAIVEHMRELPETVARLRRTV,Km,[1],8.937 ± 1.350 mM
